US20060141582A1 (ZymoGenetics, published 2006)
Values belong to the molecule of their own block, whether it stands above or below them.

Key:
[1] = biological target: CRF2-4/IL-22RA heterodimeric receptor on BaF3 cells (BaF3/CRF2-4/IL-22RA cells) (human) (UniProt Q08334); experiment: cell-based or functional assay
[2] = biological target: T1, human IL-22RA on transfected cells (BaF3/IL-22RA/IL-20RB, BaF3/IL-22RA/CRF2-4, 293 or P815 cells) (human, UniProt Q8N6P7 16-574); experiment: flow cytometry on P815 cells transfected with hIL-22RA, 5 ug/ml huIL-22-biotin; used to select the clone
T1 construct: also called huIL-22RA; hIL-22RA
T1 sequence: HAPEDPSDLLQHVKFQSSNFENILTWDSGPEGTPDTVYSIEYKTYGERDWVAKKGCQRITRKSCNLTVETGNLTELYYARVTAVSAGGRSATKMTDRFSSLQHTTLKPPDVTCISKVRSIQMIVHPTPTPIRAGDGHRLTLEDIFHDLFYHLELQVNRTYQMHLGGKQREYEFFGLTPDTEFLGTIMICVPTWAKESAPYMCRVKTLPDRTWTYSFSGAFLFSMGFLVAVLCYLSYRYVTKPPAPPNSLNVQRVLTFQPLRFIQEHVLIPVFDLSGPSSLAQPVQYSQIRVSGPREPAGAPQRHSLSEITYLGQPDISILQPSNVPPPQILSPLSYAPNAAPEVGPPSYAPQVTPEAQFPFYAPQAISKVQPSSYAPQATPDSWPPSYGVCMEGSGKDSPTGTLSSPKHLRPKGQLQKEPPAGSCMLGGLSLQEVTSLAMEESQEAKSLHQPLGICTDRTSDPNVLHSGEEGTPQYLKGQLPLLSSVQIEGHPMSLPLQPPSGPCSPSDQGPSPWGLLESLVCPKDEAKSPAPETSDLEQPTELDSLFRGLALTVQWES
Method: WT P815 Cells (ATCC No. TIB-64) were transfected with a plasmid vector containing the hIL-22RA cDNA sequence (e.g., SEQ ID NO:1) and a selectable puromycin-resistance marker, using Fugene Reagent according to the manufacturer's protocol (Roche, Indianapolis, Ind.). Cells were placed under Puromycin selection 48 hours following transfection. Puromycin-resistant transfectants were cloned by limiting dilution, and screened for their level of hIL-22RA cell surface expression by flow cytometry, using biotinylated human IL-22 (huIL-22-biotin). Briefly, cells were incubated with 5 ug/ml huIL-22-biotin for 30 minutes on ice and then washed. Binding of huIL-22-biotin to the cells was then detected using PE-labeled streptavidin at 1:500. Cells were analyzed on a Facscan flow cytometer using Cellquest software. (Becton Dickinson, San Jose, Calif.).

Sequence of CRF2-4/IL-22RA heterodimeric receptor on BaF3 cells (BaF3/CRF2-4/IL-22RA cells) (human) (Q08334 20-325 limits assumed, one chain of several): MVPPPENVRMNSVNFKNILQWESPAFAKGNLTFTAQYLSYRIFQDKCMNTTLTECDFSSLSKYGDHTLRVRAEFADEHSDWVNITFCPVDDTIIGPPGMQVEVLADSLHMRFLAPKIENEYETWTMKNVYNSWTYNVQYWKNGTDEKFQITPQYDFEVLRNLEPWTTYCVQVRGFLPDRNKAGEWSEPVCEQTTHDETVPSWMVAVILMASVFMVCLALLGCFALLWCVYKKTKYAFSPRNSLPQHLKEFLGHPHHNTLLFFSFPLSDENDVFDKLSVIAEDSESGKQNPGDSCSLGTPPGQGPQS

- proliferation of BaF3/CRF2-4/IL-22RA cells (Alamar Blue), fold induction at 0.06 ng/ml IL-22-CEE (fold induction) [1]: 2
- proliferation of BaF3/CRF2-4/IL-22RA cells (Alamar Blue), fold over background at 50 ng/ml IL-22-CEE (fold over background) [1]: 15
Molecule: IL-22-CEE (IL-22 polypeptide containing C-terminal GluGlu (EE) tag), purified from BHK 570 cells (ligand)

- binding result [2]: binds
B1: biotinylated human IL-22 (ligand)
chain: APISSHCRLDKSNFQQPYITNRTFMLAKEASLADNNTDVRLIGEKLFHGVSMSERCYLMKQVLNFTLEEVLFPQSDRFQPYMQEVVPFLARLSNRLSTCHIEGDDLHIQRNVQKLKDTVKKLGESGEIKAIGELDLLFMSLRNACI
modifications: biotinylated (sites not given)
notes: also called huIL-22-biotin
